Assay results taken from PMC10786891, “Massively parallel profiling of RNA-targeting CRISPR-Cas13d”.
Positions count from the first letter of the chain named. Names may count otherwise.

T1: EsCas13d, nuclease-dead (Eubacterium siraeum, UniProt B0MS50, R295A;H300A;R849A;H854A)
T1 sequence: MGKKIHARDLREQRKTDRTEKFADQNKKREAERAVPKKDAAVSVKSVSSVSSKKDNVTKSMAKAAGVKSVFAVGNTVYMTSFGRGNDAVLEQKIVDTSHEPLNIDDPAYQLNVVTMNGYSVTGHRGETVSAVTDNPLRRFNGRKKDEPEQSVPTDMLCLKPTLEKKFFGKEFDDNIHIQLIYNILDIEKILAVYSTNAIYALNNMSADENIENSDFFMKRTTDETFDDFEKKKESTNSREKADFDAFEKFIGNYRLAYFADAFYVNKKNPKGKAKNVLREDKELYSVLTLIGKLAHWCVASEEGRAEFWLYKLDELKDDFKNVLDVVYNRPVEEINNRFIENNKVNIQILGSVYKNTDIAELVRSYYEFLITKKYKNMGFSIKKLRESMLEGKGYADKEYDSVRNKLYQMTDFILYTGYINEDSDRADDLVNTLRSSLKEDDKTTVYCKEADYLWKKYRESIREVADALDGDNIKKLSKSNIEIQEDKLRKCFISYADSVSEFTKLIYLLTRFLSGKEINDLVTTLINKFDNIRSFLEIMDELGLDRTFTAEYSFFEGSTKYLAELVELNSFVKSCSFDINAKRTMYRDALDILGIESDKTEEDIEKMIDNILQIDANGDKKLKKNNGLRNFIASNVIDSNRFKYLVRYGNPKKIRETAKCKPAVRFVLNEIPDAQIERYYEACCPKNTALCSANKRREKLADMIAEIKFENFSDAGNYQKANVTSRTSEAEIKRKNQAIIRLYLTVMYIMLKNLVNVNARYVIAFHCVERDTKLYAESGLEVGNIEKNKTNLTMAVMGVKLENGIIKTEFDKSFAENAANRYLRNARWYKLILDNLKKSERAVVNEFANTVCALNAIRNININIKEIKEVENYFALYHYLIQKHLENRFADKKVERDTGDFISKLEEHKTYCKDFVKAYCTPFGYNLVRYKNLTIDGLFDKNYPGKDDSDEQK

B1: target 1 insG 3' of 22,insG 3' of 9 (mixed)
RNA 1: CACCCGUGCAAAAAUGCAGGGGUCUAAAACUGAGCGGAUAACCUCUCUAUGG
RNA 2: GGGAAUGGAUCCACAUCUACGAAUUCGUACGCAUAGAGAGGUUAGUCCGCUCACCGAGAUCGGAAGAGCACACGU
B2: target 1 insG 3' of 20,insG 3' of 20 (mixed)
RNA 1: B1 RNA 1
RNA 2: GGGAAUGGAUCCACAUCUACGAAUUCGUACCAGGUAGAGAGGUUAUCCGCUCACCGAGAUCGGAAGAGCACACGU
B3: target 1 A1C,G13C (mixed)
RNA 1: B1 RNA 1
RNA 2: GGGAAUGGAUCCACAUCUACGAAUUCGUACCAUAGAGACGUUAUCCGCUCCCCGAGAUCGGAAGAGCACACGU
B4: target 1 insU 3' of 15 (mixed)
RNA 1: B1 RNA 1
RNA 2: GGGAAUGGAUCCACAUCUACGAAUUCGUACCAUAGAGUAGGUUAUCCGCUCACCGAGAUCGGAAGAGCACACGU
B5: target 1 insC 3' of 9,insG 3' of 4 (mixed)
RNA 1: B1 RNA 1
RNA 2: GGGAAUGGAUCCACAUCUACGAAUUCGUACCAUAGAGAGGUUACUCCGCGUCACCGAGAUCGGAAGAGCACACGU
B6: target 1 A9G,C22G (mixed)
RNA 1: B1 RNA 1
RNA 2: B3 RNA 2 with C30G, C39G, A43G, C51A
B7: target 1 G12C,G13A (mixed)
RNA 1: B1 RNA 1
RNA 2: B3 RNA 2 with C39A, G40C, C51A
B8: target 1 U10A,G17A (mixed)
RNA 1: B1 RNA 1
RNA 2: B3 RNA 2 with G35A, C39G, U42A, C51A
B9: target 1 A1U,U11C (mixed)
RNA 1: B1 RNA 1
RNA 2: B3 RNA 2 with C39G, U41C, C51U
B10: target 1 C7A,G13A (mixed)
RNA 1: B1 RNA 1
RNA 2: B3 RNA 2 with C39A, C45A, C51A
B11: target 1 C2G,C6A (mixed)
RNA 1: B1 RNA 1
RNA 2: B3 RNA 2 with C39G, C46A, C50G, C51A
B12: target 1 C6G,G13U (mixed)
RNA 1: B1 RNA 1
RNA 2: B3 RNA 2 with C39U, C46G, C51A
B13: target 1 insG 3' of 21,insG 3' of 9 (mixed)
RNA 1: B1 RNA 1
RNA 2: B1 RNA 2 with G31C, C32G
B14: target 1 insU 3' of 17,insA 3' of 4 (mixed)
RNA 1: B1 RNA 1
RNA 2: B5 RNA 2 with A36U, G37A, A38G, G39A, U41G, A43U, C44A, G50A
B15: target 1 insU 3' of 21,insG 3' of 2 (mixed)
RNA 1: B1 RNA 1
RNA 2: B1 RNA 2 with G31C, C32U, G45U, U46C, C48G, G49C, C50U, U51C, C52G
B16: target 1 insG 3' of 16,insA 3' of 3 (mixed)
RNA 1: B1 RNA 1
RNA 2: B5 RNA 2 with A38G, G39A, U41G, A43U, C44A, G50U, U51A
B17: target 1 A1U,C22U (mixed)
RNA 1: B1 RNA 1
RNA 2: B3 RNA 2 with C30U, C39G, C51U
B18: target 1 A9G,G12U (mixed)
RNA 1: B1 RNA 1
RNA 2: B3 RNA 2 with C39G, G40U, A43G, C51A
B19: target 1 insC 3' of 9,insC 3' of 8 (mixed)
RNA 1: B1 RNA 1
RNA 2: B5 RNA 2 with G48C, C49G, G50C
B20: target 1 insU 3' of 12,insG 3' of 7 (mixed)
RNA 1: B1 RNA 1
RNA 2: B5 RNA 2 with A43U, C44A, C47G, G48C, C49G, G50C
B21: target 1 insC 3' of 19,insU 3' of 2 (mixed)
RNA 1: B1 RNA 1
RNA 2: GGGAAUGGAUCCACAUCUACGAAUUCGUACCAUCAGAGAGGUUAUCCGCUCUACCGAGAUCGGAAGAGCACACGU
B22: target 1 complement block 1-5 (mixed)
RNA 1: B1 RNA 1
RNA 2: B3 RNA 2 with C39G, G47C, C48G, U49A, C50G, C51U
B23: target 1 insU 3' of 21,insG 3' of 19 (mixed)
RNA 1: B1 RNA 1
RNA 2: B2 RNA 2 with A32U, G33A, G34U, U35G
B24: target 1 U19C,A20C (mixed)
RNA 1: B1 RNA 1
RNA 2: B3 RNA 2 with A32C, U33C, C39G, C51A
B25: target 1 insG 3' of 10,insU 3' of 5 (mixed)
RNA 1: B1 RNA 1
RNA 2: B5 RNA 2 with A43G, C44A, C49U, G50C
B26: target 1 U11C,G12C (mixed)
RNA 1: B1 RNA 1
RNA 2: B3 RNA 2 with C39G, G40C, U41C, C51A
B27: target 1 insU 3' of 18,insG 3' of 3 (mixed)
RNA 1: B1 RNA 1
RNA 2: B21 RNA 2 with C34A, A35U, C51G, U52C
B28: target 1 C7A,C22U (mixed)
RNA 1: B1 RNA 1
RNA 2: B3 RNA 2 with C30U, C39G, C45A, C51A
B29: target 1 G13C (mixed)
RNA 1: B1 RNA 1
RNA 2: B3 RNA 2 with C51A
B30: target 1 U11A,G17A (mixed)
RNA 1: B1 RNA 1
RNA 2: B3 RNA 2 with G35A, C39G, U41A, C51A
B31: target 1 insG 3' of 3,insC 3' of 3 (mixed)
RNA 1: B1 RNA 1
RNA 2: B5 RNA 2 with C44U, U45C, C47G, G48C, C49U, U51C
B32: target 1 G12A,U19C (mixed)
RNA 1: B1 RNA 1
RNA 2: B3 RNA 2 with U33C, C39G, G40A, C51A
B33: target 1 C4U,U10G (mixed)
RNA 1: B1 RNA 1
RNA 2: B3 RNA 2 with C39G, U42G, C48U, C51A
B34: target 1 insG 3' of 19,insA 3' of 13 (mixed)
RNA 1: B1 RNA 1
RNA 2: B2 RNA 2 with G33U, U35A, A36G, G37A, A38G, G39A, A40G, G41A

Molecular target: T1, EsCas13d, nuclease-dead
Test: crRNA (strand 1, pre-loaded); Mg2+; 40 mM Tris-HCl pH 7.5, 150 mM NaCl, 6 mM MgCl2, 1 mM DTT, 0.1% Tween-20, 0.2 mg/ml BSA; 25 C; 10 min per concentration, then washed
Settings: tags: His6-TwinStrep-SUMO cleaved; N-terminal SNAP kept (SNAP-Surface 488); label: 3' end held by stalled T7 RNA polymerase

Binder	Kd [µM]
B1	0.0282 ± 0.0018
B2	0.06 ± 0.02
B3	0.047 ± 0.011
B4	0.0087 ± 0.0006
B5	0.00702 ± 0.00026
B6	0.058 ± 0.018
B7	0.0095 ± 0.0005
B8	0.055 ± 0.005
B9	0.0093 ± 0.001
B10	0.0108 ± 0.0007
B11	0.00449 ± 0.00017
B12	0.037 ± 0.005
B13	0.07 ± 0.017
B14	0.0153 ± 0.0014
B15	0.026 ± 0.005
B16	0.0177 ± 0.0012
B17	0.017 ± 0.0026

Binder	Kd [µM]
B18	0.0125 ± 0.0006
B19	0.0199 ± 0.0014
B20	0.0068 ± 0.0004
B21	0.0327 ± 0.0029
B22	0.0143 ± 0.0006
B23	0.073 ± 0.009
B24	0.094 ± 0.029
B25	0.043 ± 0.011
B26	0.0171 ± 0.0021
B27	0.0177 ± 0.0006
B28	0.0138 ± 0.0011
B29	0.062 ± 0.016
B30	0.091 ± 0.013
B31	0.0114 ± 0.0004
B32	0.022 ± 0.003
B33	0.0185 ± 0.0019
B34	0.047 ± 0.01
